Screen value data for 75 variants are collected here from PMC12102759 (2025).

The labels stand for the following.
B1: PEX5 peptide 110-125 (Peroxisomal targeting signal 1 receptor), 16-mer library wild type / PEX14 Pex14 (PEX14 PEX14, residues 16-84) (parent complex)
chain 1: ADLALSENWAQEFLAA
chain 2: TPGSENVLPREPLIATAVKFLQNSRVRQSPLATRRAFLKKKGLTDEEIDMAFQQSGTAADEPSSLGPAT
B2: RNF115 peptide 67-82 (E3 ubiquitin-protein ligase RNF115), 16-mer library wild type / MDM2 SWIB (MDM2 SWIB/MDM2 domain, residues 17-125) (parent complex)
chain 1: TTTHFAELWGHLDHTM
chain 2: SQIPASEQETLVRPKPLLLKLLKSVGAQKDTYTMKEVLFYLGQYIMTKRLYDEKQQHIVYCSNDLLGDLFGVPSFSVKEHRKIYTMIYRNLVVVNQQESSDSGTSVSEN

Variants of B1 are the subject of one assay. Description: proteomic peptide phage display deep mutational scan (ProP-PD DMS): M13 P8 16-mer library selected against immobilised GST-tagged bait for four days (rounds), NGS of the eluted pools per day and pseudo-replica; bait immobilised on MaxiSorp plates (10 µg), library pre-cleared on GST, 2 h binding at 4 °C, five washes; one round per day, days 1-4; value from days 2 and 3.
As for chain 1 N8L, the screen value is 0.000366 average fractional NGS count over selection days 2 and 3 (reads of this peptide / all reads for the bait, averaged over ….

Take chain 1 N8H: the screen value was 0.00161 average fractional NGS count over selection days 2 and 3 (reads of this peptide / all reads for the bait, averaged over ….

As to chain 1 N8D, the screen value was 0.00107 average fractional NGS count over selection days 2 and 3 (reads of this peptide / all reads for the bait, averaged over ….

The variants in the next assay derive from B2. The description is as above.
With chain 1 L12M, the screen value is 0.000189 average fractional NGS count over selection days 2 and 3 (reads of this peptide / all reads for the bait, averaged over ….

For chain 1 L12I, the screen value is 0.000166 average fractional NGS count over selection days 2 and 3 (reads of this peptide / all reads for the bait, averaged over ….

Turning to chain 1 D13G, the screen value is 0.00549 average fractional NGS count over selection days 2 and 3 (reads of this peptide / all reads for the bait, averaged over ….

Regarding chain 1 D13S, the screen value was 0.00426 average fractional NGS count over selection days 2 and 3 (reads of this peptide / all reads for the bait, averaged over ….

As to chain 1 D13P, the screen value was 0.00074 average fractional NGS count over selection days 2 and 3 (reads of this peptide / all reads for the bait, averaged over ….

With chain 1 D13R, the screen value is 0.000392 average fractional NGS count over selection days 2 and 3 (reads of this peptide / all reads for the bait, averaged over ….

With chain 1 D13F, the screen value is 0.00274 average fractional NGS count over selection days 2 and 3 (reads of this peptide / all reads for the bait, averaged over ….

Consider chain 1 D13V, for which the screen value is 0.0143 average fractional NGS count over selection days 2 and 3 (reads of this peptide / all reads for the bait, averaged over ….

For the variant chain 1 D13M, the screen value was 0.00561 average fractional NGS count over selection days 2 and 3 (reads of this peptide / all reads for the bait, averaged over ….

In the case of chain 1 D13A, the screen value was 0.00127 average fractional NGS count over selection days 2 and 3 (reads of this peptide / all reads for the bait, averaged over ….

For the variant chain 1 D13Q, the screen value was 0.00218 average fractional NGS count over selection days 2 and 3 (reads of this peptide / all reads for the bait, averaged over ….

Take chain 1 D13N: the screen value was 0.000525 average fractional NGS count over selection days 2 and 3 (reads of this peptide / all reads for the bait, averaged over ….

In the case of chain 1 D13W, the screen value was 0.000615 average fractional NGS count over selection days 2 and 3 (reads of this peptide / all reads for the bait, averaged over ….

For the variant chain 1 D13T, the screen value was 0.0095 average fractional NGS count over selection days 2 and 3 (reads of this peptide / all reads for the bait, averaged over ….

Consider chain 1 H11Q, for which the screen value is 0.00312 average fractional NGS count over selection days 2 and 3 (reads of this peptide / all reads for the bait, averaged over ….

With chain 1 H11F, the screen value is 0.00626 average fractional NGS count over selection days 2 and 3 (reads of this peptide / all reads for the bait, averaged over ….

Regarding chain 1 H11S, the screen value is 0.000392 average fractional NGS count over selection days 2 and 3 (reads of this peptide / all reads for the bait, averaged over ….

For chain 1 H11G, the screen value is 0.000565 average fractional NGS count over selection days 2 and 3 (reads of this peptide / all reads for the bait, averaged over ….

Turning to chain 1 H11N, the screen value is 0.000176 average fractional NGS count over selection days 2 and 3 (reads of this peptide / all reads for the bait, averaged over ….

chain 1 H11M: the screen value is 0.00257 average fractional NGS count over selection days 2 and 3 (reads of this peptide / all reads for the bait, averaged over ….

On to chain 1 H11D, for which the screen value is 0.00024 average fractional NGS count over selection days 2 and 3 (reads of this peptide / all reads for the bait, averaged over ….

Take chain 1 H11K: the screen value was 0.000921 average fractional NGS count over selection days 2 and 3 (reads of this peptide / all reads for the bait, averaged over ….

With chain 1 H11V, the screen value is 0.00167 average fractional NGS count over selection days 2 and 3 (reads of this peptide / all reads for the bait, averaged over ….

Regarding chain 1 H11T, the screen value was 0.00102 average fractional NGS count over selection days 2 and 3 (reads of this peptide / all reads for the bait, averaged over ….

Consider chain 1 L8Y, for which the screen value is 0.0291 average fractional NGS count over selection days 2 and 3 (reads of this peptide / all reads for the bait, averaged over ….

chain 1 L8F: the screen value is 0.000568 average fractional NGS count over selection days 2 and 3 (reads of this peptide / all reads for the bait, averaged over ….

As to chain 1 L8H, the screen value is 0.000131 average fractional NGS count over selection days 2 and 3 (reads of this peptide / all reads for the bait, averaged over ….

With chain 1 H14T, the screen value is 0.000601 average fractional NGS count over selection days 2 and 3 (reads of this peptide / all reads for the bait, averaged over ….

In the case of chain 1 H14A, the screen value was 0.00138 average fractional NGS count over selection days 2 and 3 (reads of this peptide / all reads for the bait, averaged over ….

As to chain 1 H14Y, the screen value is 0.00813 average fractional NGS count over selection days 2 and 3 (reads of this peptide / all reads for the bait, averaged over ….

chain 1 H14E: the screen value is 9.03e-05 average fractional NGS count over selection days 2 and 3 (reads of this peptide / all reads for the bait, averaged over ….

For the variant chain 1 H14S, the screen value was 0.00046 average fractional NGS count over selection days 2 and 3 (reads of this peptide / all reads for the bait, averaged over ….

For chain 1 H14V, the screen value was 0.00211 average fractional NGS count over selection days 2 and 3 (reads of this peptide / all reads for the bait, averaged over ….

Consider chain 1 T2L, for which the screen value is 0.000556 average fractional NGS count over selection days 2 and 3 (reads of this peptide / all reads for the bait, averaged over ….

Take chain 1 T2D: the screen value is 0.00164 average fractional NGS count over selection days 2 and 3 (reads of this peptide / all reads for the bait, averaged over ….

In the case of chain 1 T2M, the screen value was 0.000321 average fractional NGS count over selection days 2 and 3 (reads of this peptide / all reads for the bait, averaged over ….

On to chain 1 T3V, for which the screen value is 0.000622 average fractional NGS count over selection days 2 and 3 (reads of this peptide / all reads for the bait, averaged over ….

For the variant chain 1 T3L, the screen value was 0.00187 average fractional NGS count over selection days 2 and 3 (reads of this peptide / all reads for the bait, averaged over ….

For chain 1 T3A, the screen value is 0.000681 average fractional NGS count over selection days 2 and 3 (reads of this peptide / all reads for the bait, averaged over ….

On to chain 1 T3D, for which the screen value is 0.000232 average fractional NGS count over selection days 2 and 3 (reads of this peptide / all reads for the bait, averaged over ….

Turning to chain 1 T3I, the screen value is 0.00069 average fractional NGS count over selection days 2 and 3 (reads of this peptide / all reads for the bait, averaged over ….

On to chain 1 T3S, for which the screen value was 0.000431 average fractional NGS count over selection days 2 and 3 (reads of this peptide / all reads for the bait, averaged over ….

chain 1 T3H: the screen value is 0.000104 average fractional NGS count over selection days 2 and 3 (reads of this peptide / all reads for the bait, averaged over ….

As for chain 1 T3Q, the screen value was 0.000196 average fractional NGS count over selection days 2 and 3 (reads of this peptide / all reads for the bait, averaged over ….

In the case of chain 1 T3Y, the screen value was 0.000753 average fractional NGS count over selection days 2 and 3 (reads of this peptide / all reads for the bait, averaged over ….

Regarding chain 1 M16W, the screen value was 0.000718 average fractional NGS count over selection days 2 and 3 (reads of this peptide / all reads for the bait, averaged over ….

In the case of chain 1 M16T, the screen value is 0.00044 average fractional NGS count over selection days 2 and 3 (reads of this peptide / all reads for the bait, averaged over ….

chain 1 F5Q: the screen value is 0.00091 average fractional NGS count over selection days 2 and 3 (reads of this peptide / all reads for the bait, averaged over ….

With chain 1 F5S, the screen value is 0.000118 average fractional NGS count over selection days 2 and 3 (reads of this peptide / all reads for the bait, averaged over ….

Take chain 1 F5Y: the screen value was 0.0001 average fractional NGS count over selection days 2 and 3 (reads of this peptide / all reads for the bait, averaged over ….

chain 1 E7D: the screen value is 0.000661 average fractional NGS count over selection days 2 and 3 (reads of this peptide / all reads for the bait, averaged over ….

Turning to chain 1 E7I, the screen value was 0.000492 average fractional NGS count over selection days 2 and 3 (reads of this peptide / all reads for the bait, averaged over ….

For the variant chain 1 T15Y, the screen value was 0.00205 average fractional NGS count over selection days 2 and 3 (reads of this peptide / all reads for the bait, averaged over ….

Turning to chain 1 T15L, the screen value was 7.38e-05 average fractional NGS count over selection days 2 and 3 (reads of this peptide / all reads for the bait, averaged over ….

As for chain 1 T15M, the screen value was 0.00385 average fractional NGS count over selection days 2 and 3 (reads of this peptide / all reads for the bait, averaged over ….

In the case of chain 1 T15H, the screen value is 0.000116 average fractional NGS count over selection days 2 and 3 (reads of this peptide / all reads for the bait, averaged over ….

Take chain 1 T15G: the screen value was 0.0009 average fractional NGS count over selection days 2 and 3 (reads of this peptide / all reads for the bait, averaged over ….

As to chain 1 T15W, the screen value was 0.00561 average fractional NGS count over selection days 2 and 3 (reads of this peptide / all reads for the bait, averaged over ….

On to chain 1 G10M, for which the screen value was 0.00144 average fractional NGS count over selection days 2 and 3 (reads of this peptide / all reads for the bait, averaged over ….

With chain 1 G10L, the screen value was 0.000164 average fractional NGS count over selection days 2 and 3 (reads of this peptide / all reads for the bait, averaged over ….

In the case of chain 1 G10A, the screen value is 0.00678 average fractional NGS count over selection days 2 and 3 (reads of this peptide / all reads for the bait, averaged over ….

On to chain 1 G10N, for which the screen value is 0.000457 average fractional NGS count over selection days 2 and 3 (reads of this peptide / all reads for the bait, averaged over ….

In the case of chain 1 A6Q, the screen value is 0.000266 average fractional NGS count over selection days 2 and 3 (reads of this peptide / all reads for the bait, averaged over ….

chain 1 A6S: the screen value was 0.000754 average fractional NGS count over selection days 2 and 3 (reads of this peptide / all reads for the bait, averaged over ….

For the variant chain 1 A6W, the screen value is 0.000676 average fractional NGS count over selection days 2 and 3 (reads of this peptide / all reads for the bait, averaged over ….

Turning to chain 1 A6H, the screen value was 0.00017 average fractional NGS count over selection days 2 and 3 (reads of this peptide / all reads for the bait, averaged over ….

As for chain 1 H4D, the screen value is 0.000343 average fractional NGS count over selection days 2 and 3 (reads of this peptide / all reads for the bait, averaged over ….

As to chain 1 H4I, the screen value was 0.000874 average fractional NGS count over selection days 2 and 3 (reads of this peptide / all reads for the bait, averaged over ….

chain 1 H4F: the screen value was 0.000236 average fractional NGS count over selection days 2 and 3 (reads of this peptide / all reads for the bait, averaged over ….

Take chain 1 H4A: the screen value is 0.000176 average fractional NGS count over selection days 2 and 3 (reads of this peptide / all reads for the bait, averaged over ….

Turning to chain 1 H4L, the screen value is 0.000482 average fractional NGS count over selection days 2 and 3 (reads of this peptide / all reads for the bait, averaged over ….

Consider chain 1 H4G, for which the screen value is 0.00192 average fractional NGS count over selection days 2 and 3 (reads of this peptide / all reads for the bait, averaged over ….
